The source of these data is US7803377B2, “Anti-DLL4 antibodies and methods using same” (Genentech, Inc., priority 2006, dated 2010).

Changes are numbered by the printed parent chain.

The test system of one assay is VEGFR2. As to the kind of experiment: Real-time quantitative RT-PCR of VEGFR2 expression in HUVECs. It is filed as cell-based, human. Conditions: 2-D culture of HUVECs (36 hr). As to the method:
RNA extraction and Real-time quantitative RT-PCR. Extraction of total RNA from HUVECs in 2-D culture was done using RNeasy® Mini Kit (Qiagen) as per instructions of the manufacturer. To extract total RNA from HUVECs growing in fibrin gels, fibrin gels were treated with 10× trypsin-EDTA (Gibco) for 5 min to remove the top layer fibroblasts, followed by neutralization with 10% FBS in PBS. The gel clots were then removed from tissue culture wells and subjected to centrifugation (10K for 5 min) in microtubes to remove excessive fluid. The resulting gel “pellets” were lysed with lysis buffer (RNeasy® Mini Kit), and further processed as with HUVECs in 2-D culture. The quality of RNA was assessed using RNA 6000 Nano Chips and the Agilent 2100 Bioanalyzer (Agilent Technologies). Real-time quantitative RT-PCR reactions were done in triplicate using 7500 Real Time PCR System (Applied Biosystems). Human GAPDH was used as reference gene for normalization. The expression levels are expressed as the mean (±SEM) fold mRNA changes relative to control from 3 separate determinations. The forward and reverse primer and probe sequences for VEGFR2, TGFβ2 and GAPDH were as follows.
Therefore, while VEGF can act upstream of DLL4/Notch pathway, DLL4/Notch is capable of fine-tuning the response through negatively regulating VEGFR2 expression.

Another assay relates to HUVEC. As to the kind of experiment: HUVEC proliferation on Notch activation by immobilized DLL4. The format is cell-based, human. Conditions: Notch activation by immobilized DLL4 protein.
The target in a further assay is T1, human Delta4 (ECD5.5) (Homo sapiens, UniProt Q9NR61).
T1 construct: DLL4-His (C-terminal His-tagged human DLL4, amino acid 1-404); His (C)
As to the kind of experiment: Surface plasmon resonance (BIAcore-3000) binding affinity and kinetics. As to conditions: human DLL4-His injected over coupled antibody, 25° C. The procedure:
(§1) To determine the binding affinity of the anti-DLL4 Mabs, surface plasmon resonance (SRP) measurement with a BIAcore™-3000 was used (BIAcore, Inc., Piscataway, N.J.). Briefly, carboxymethylated dextran biosensor chips (CM5, BIAcore Inc.) were activated with N-ethyl-N′-(3-dimethylaminopropyl)-carbodiimide hydrochloride (EDC) and N-hydroxysuccinimide (NHS) according to the supplier's instructions. Anti-DLL4 antibody was diluted with 10 mM sodium acetate, pH 4.8, into 5 μg/ml before injection at a flow rate of 5 μl/minute to achieve approximately 500 response units (RU) of coupled antibody. Next, IM ethanolamine was injected to block unreacted groups. For kinetics measurements, two-fold serial dilutions of either human or murine DLL4-His molecules (0.7 nM to 500 nM) were injected in PBS with 0.05% Tween™ 20 at 25° C. at a flow rate of 25 μl/min. Association rates (kon) and dissociation rates (koff) were calculated using a simple one-to-one Langmuir binding model (BIAcore Evaluation Software version 3.2). The equilibrium dissociation constant (Kd) was calculated as the ratio koff/kon.
(In general: SPR reads the build-up and loss of mass on a sensor chip optically.)

For a further assay, the target named is T2, murine Delta4 (ECD5.5) (Mus musculus, UniProt Q9JI71).
T2 construct: murine Delta4 (ECD5.5); His
T2 sequence (Q9JI71 27-405 limits assumed): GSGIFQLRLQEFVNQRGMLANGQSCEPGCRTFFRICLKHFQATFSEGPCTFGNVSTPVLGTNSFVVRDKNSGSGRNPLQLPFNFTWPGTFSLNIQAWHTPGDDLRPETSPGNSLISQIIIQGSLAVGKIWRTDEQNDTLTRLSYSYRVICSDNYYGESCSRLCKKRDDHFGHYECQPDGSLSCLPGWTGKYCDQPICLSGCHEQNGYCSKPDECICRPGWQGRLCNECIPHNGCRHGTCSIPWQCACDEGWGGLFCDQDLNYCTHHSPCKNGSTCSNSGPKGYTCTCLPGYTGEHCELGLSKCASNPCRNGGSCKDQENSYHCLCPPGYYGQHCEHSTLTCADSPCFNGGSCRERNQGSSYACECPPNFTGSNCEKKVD
The assay is described as above. Conditions: murine DLL4-His injected over coupled antibody, 25° C. The procedure: as §1

B1: immobilized DLL4: immobilized C-terminal His-tagged human DLL4 (amino acids 1-404) used to activate Notch in HUVECs (protein)
chain: GSGVFQLQLQEFINERGVLASGRPCEPGCRTFFRVCLKHFQAVVSPGPCTFGTVSTPVLGTNSFAVRDDSSGGGRNPLQLPFNFTWPGTFSLIIEAWHAPGDDLRPEALPPDALISKIAIQGSLAVGQNWLLDEQTSTLTRLRYSYRVICSDNYYGDNCSRLCKKRNDHFGHYVCQPDGNLSCLPGWTGEYCQQPICLSGCHEQNGYCSKPAECLCRPGWQGRLCNECIPHNGCRHGTCSTPWQCTCDEGWGGLFCDQDLNYCTHHSPCKNGATCSNSGQRSYTCTCRPGYTGVDCELELSECDSNPCRNGGSCKDQEDGYHCLCPPGYYGLHCEHSTLSCADSPCFNGGSCRERNQGANYACECPPNFTGSNCEKKVD
modifications: left off: small tags and cut ends
On to B1, for which the “VEGFR2 expression on Notch activation” value in the assay with VEGFR2 is recorded as “suppressed the expression of VEGFR2”. In the assay with HUVEC, the “HUVEC proliferation / growth” value is listed as “significant growth inhibition”.

B2: YW26.14: affinity matured anti-DLL4 antibody; HVR-H1/H2/H3 SEQ ID NO:2, 3, 9; HVR-L1/L2/L3 SEQ ID NO:10, 11, 14 (antibody, V domains shown)
VH: EVQLVESGGGLVQPGGSLRLSCAASGFSFRDNWISWVRQAPGKGLEWVGVINPNSGSTDYADSVKGRFTISADTSKNTAYLQMNSLRAEDTAVYYCARDNFGGYFDYWGQGTLVTVSS
VL: DIQMTQSPSSLSASVGDRVTITCRASQDVSTAVAWYQQKPGKAPKLLIYSASFLYSGVPSRFSGSGSGTDFTLTISSLQPEDFATYYCQQSVNGPATFGQGTKVEIK
As for B2, in the assay with human Delta4 (ECD5.5), the “koff/10^−4” value is 0.66 10^−4 and the “kon/10^5” value is recorded as 1.8 10^5. In the assay with murine Delta4 (ECD5.5), the “koff10^−4” value is 0.73 10^−4 and the “kon/10^5” value is on record as 3.3 10^5.

B3: YW26.34: affinity matured anti-DLL4 antibody; HVR-H1/H2/H3 SEQ ID NO:1, 6, 9; HVR-L1/L2/L3 SEQ ID NO:10, 11, 16 (antibody, V domains shown)
VH: B2 VH with S28T, R30T, V50L, N54T, D59I
VL: B2 VL with V92Y, N93T, A96S
As to B3, in the assay with human Delta4 (ECD5.5), the “koff/10^−4” value is reported as 0.67 10^−4 and the “kon/10^5” value was 1.9 10^5. Moreover, in the assay with murine Delta4 (ECD5.5), the “koff10^−4” value is recorded as 0.65 10^−4 and the “kon/10^5” value is listed as 3.6 10^5.
